In data set [1] the target is PfCen1-6His (P. falciparum centrin 1, 6His-tagged) (P. falciparum). The experiment in a line: turbidity (light scattering); range of PfCen1-6His concentrations to find the saturation concentration; CaCl2 to 2 mM; 50 mM BisTris pH 7.1, 37°C, no salt or PEG.
The target is the same in data set [2]. The experiment in a line: turbidity (light scattering); PfCen1-6His and PfCen3-6His at individually subcritical concentrations, alone with BSA to a total protein concentration of >20 μM or as a mixture; calcium, then EDTA; 50 mM BisTris pH 7.1, 37°C.
The target of data set [3] is PfCen3-6His (P. falciparum centrin 3, 6His-tagged) (P. falciparum). The description is as above.
Data set [4] deals with the molecule itself. The experiment in a line: light microscopy of droplets in purified protein solutions; self-assembly into droplets; concentrated recombinant centrin (100-200 μM), 2 mM CaCl2 added, then 10 mM EDTA; 50 mM BisTris pH 7.1, 37°C.

For “PfCen1-6His (P. falciparum centrin 1, 6His-tagged) (natural protein)”, the csat (critical saturation concentration) in data set [1] lay in the range of 10 to 15 µM. The csat (saturation concentration) in data set [2] stood at 10 µM.

Turning to “PfCen3-6His (P. falciparum centrin 3, 6His-tagged) (natural protein)”, in data set [3], the csat (saturation concentration) came out at 10 µM.

B1: ScCdc31-6His (Saccharomyces cerevisiae centrin Cdc31) (natural protein, UniProt P06704 1-161, looked up)
chain: MSKNRSSLQSGPLNSELLEEQKQEIYEAFSLFDMNNDGFLDYHELKVAMKALGFELPKREILDLIDEYDSEGRHLMKYDDFYIVMGEKILKRDPLDEIKRAFQLFDDDHTGKISIKNLRRVAKELGETLTDEELRAMIEEFDLDGDGEINENEFIAICTDS
notes: Saccharomyces cerevisiae centrin Cdc31, 161 aa, 19 kDa; source: recombinant, pET-28 construct from a synthetic codon optimized gene
As for B1, in data set [4], the binding result is given as “binds”.

B2: HsCen2-6His (human centrin 2, 6His-tagged) (natural protein, UniProt P41208 1-172, looked up)
chain: MASNFKKANMASSSQRKRMSPKPELTEEQKQEIREAFDLFDADGTGTIDVKELKVAMRALGFEPKKEEIKKMISEIDKEGTGKMNFGDFLTVMTQKMSEKDTKEEILKAFKLFDDDETGKISFKNLKRVAKELGENLTDEELQEMIDEADRDGDGEVSEQEFLRIMKKTSLY
notes: human centrin 2 (HsCen2); mass spectrometry confirmed full length except for cleavage of methionine 1; source: E. coli BL21-CodonPlus (DE3), pET-28, purified (Ni-NTA); not shown: 6His, C-terminal, kept
For the molecule B2, the binding result in data set [4] is “binds”.
